According to patent US20130071921A1 (Pfizer, published 2013):

What was measured:
[1] = target: T1, Recombinant human Dkk-1 (R&D Systems cat no. 1096-DK/CF), 10xHis tag at the C terminal (human, UniProt O94907 32-266); assay: cell-based or functional assay
T1 sequence: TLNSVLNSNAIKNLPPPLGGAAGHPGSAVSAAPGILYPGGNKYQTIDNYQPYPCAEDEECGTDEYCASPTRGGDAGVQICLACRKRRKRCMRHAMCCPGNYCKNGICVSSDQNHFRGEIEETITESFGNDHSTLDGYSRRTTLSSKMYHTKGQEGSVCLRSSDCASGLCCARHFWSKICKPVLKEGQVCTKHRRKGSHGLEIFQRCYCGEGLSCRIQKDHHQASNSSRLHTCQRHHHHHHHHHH

[2] = target: T1, Recombinant human Dkk-1 (R&D Systems …); assay: method not given
[3] = target: T2, recombinant mouse Dkk-1 (R&D systems Cat No. 1765-DK/CF) (mouse, UniProt O54908 32-272); assay: method not given
T2 construct: Bought
T2 sequence (looked up): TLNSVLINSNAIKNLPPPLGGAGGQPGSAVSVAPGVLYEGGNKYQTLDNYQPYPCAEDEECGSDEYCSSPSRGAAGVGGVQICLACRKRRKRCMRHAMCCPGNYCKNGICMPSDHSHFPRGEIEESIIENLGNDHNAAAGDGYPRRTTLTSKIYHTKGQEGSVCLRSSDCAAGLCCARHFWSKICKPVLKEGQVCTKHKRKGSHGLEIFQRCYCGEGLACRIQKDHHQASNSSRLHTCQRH

Cynomolgous monkey Dkk-1 [4] = target: T3, Cynomolgous monkey Dkk-1 (cynomolgous monkey); assay: SPR BIAcore 3000, CM5 chip (Table 8)
[5] = target: T1, Recombinant human Dkk-1 (R&D Systems …); assay: SPR BIAcore 3000, CM5 chip (Table 8)
[6] = target: T2, recombinant mouse Dkk-1 (R&D systems …); assay: SPR BIAcore 3000, CM5 chip (Table 8)
[7] = target: T4, recombinant rat Dkk-1 (R&D systems Cat No. 4010-DK/CF) (rat); assay: SPR BIAcore 3000, CM5 chip (Table 8)
T4 construct: Bought

[8] = target: T4, recombinant rat Dkk-1 (R&D systems Cat …); assay: TMDD PK/PD model fit to rat serum data in vivo; derived as Koff/Kon
Cynomolgous monkey Dkk-1 [9] = target: T3, Cynomolgous monkey Dkk-1; assay: TMDD PK/PD model fit to monkey serum data in vivo; derived as Koff/Kon
[10] = target: T1, Recombinant human Dkk-1 (R&D Systems …); assay: SPR (Table 4, headed 37C, BIAcore or ProteOn); 37 C per caption of Table 4
[11] = target: T2, recombinant mouse Dkk-1 (R&D systems …); assay: SPR BIAcore, huMabJC18 captured by goat Fab2 anti-human Fc, mouse Dkk-1 injected
Method: For the interaction analyses of huMabJC18 with mouse or rat Dkk-1, low-levels of huMabJC18 (typically, 100-400 response units) were captured on individual flow cells by goat Fab2 anti-human Fc, which was pre-immobilized to the CM5 chip surface. A goat Fab2 anti-human Fc-saturated flow cell containing no humanized antibody served as reference channel. Mouse or rat Dkk-1 (R&D Systems) was titrated over the chip using 70.1 nM or 30.2 nM as top concentration, respectively, of a three-fold dilution series Association and dissociation phases were monitored at 100 μL/min for 90 seconds and 30 minutes, respectively. Capture surfaces for all experiments were regenerated with two 30 second pulses of […] H₃PO₄, except for the amine-coupled huMabJC18 surface used in the human Dkk-1 experiment, which was not regenerated.

[12] = target: T5, recombinant human Dkk4 (R&D systems Cat No. 1269-DK/CF) (human, UniProt Q9UBT3 19-224); assay: SPR BIAcore, huMabJC18 captured by goat Fab2 anti-human Fc, hDkk-4 titrated from 76.3 nM
T5 construct: Bought; also called hDkk-4
T5 sequence (looked up): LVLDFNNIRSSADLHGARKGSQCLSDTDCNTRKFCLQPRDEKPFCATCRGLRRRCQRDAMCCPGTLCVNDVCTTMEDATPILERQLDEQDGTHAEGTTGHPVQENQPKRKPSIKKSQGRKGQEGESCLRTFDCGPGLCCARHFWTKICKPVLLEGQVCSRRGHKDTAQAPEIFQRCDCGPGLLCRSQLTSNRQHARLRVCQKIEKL

[13] = target: T6, recombinant mouse Dkk-2 (R&D systems Cat No. 2435-DK/CF) (mouse, UniProt Q9QYZ8 34-259, limits assumed); assay: SPR BIAcore, huMabJC18 captured by goat Fab2 anti-human Fc, mDkk-2 titrated from 88.8 nM
T6 construct: Bought; also called mDkk-2
T6 sequence (looked up): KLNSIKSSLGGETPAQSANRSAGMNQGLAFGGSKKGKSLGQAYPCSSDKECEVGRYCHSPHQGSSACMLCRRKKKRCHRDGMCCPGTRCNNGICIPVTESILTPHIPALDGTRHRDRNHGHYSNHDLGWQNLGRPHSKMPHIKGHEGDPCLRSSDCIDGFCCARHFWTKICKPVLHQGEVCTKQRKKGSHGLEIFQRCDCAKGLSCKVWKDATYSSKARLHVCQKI

B1: huMabJC18, fully humanized anti-Dkk-1 monoclonal antibody (antibody, human IgG2, kappa, V domains shown)
VH: EVQLVESGGGLVQPGGSLRLSCAASGFTFSSYAISWVRQAPGKGLEWVASVSGTGLGFQTYYPDSVKGRFTISRDNAKNSLYLQMNSLRAEDTAVYYCATSLENYAFDYWGQGTTVTVSS
VL: EIVLTQSPATLSLSPGERATLSCRASESVDDFGISFINWYQQKPGQAPRLLIYAGSKQGSGIPARFSGSGSGTDFTLTISSLEPEDFAVYYCQQLKEVPPTFGGGTKVEIKR
notes: IgG2(delta a: A329S, P330S), kappa; also called huMabJC18 IgG
**Q.** With B1 as the binder, how does the “IC50 in a Cell-based Functional Assay (U2OS TOPFlash luciferase; reversal of Dkk-1 inhibition of Wnt3a signaling)” value [1] read?
**A.** The value was 1.3 nM.

**Q.** What about the “fold increase in affinity against the parent mouse antibody JC18” value [2] of the same binder?
**A.** Its value is over 100 fold.

**Q.** What about the “fold increase in affinity against the parent mouse antibody JC18” value [3] of the same binder?
**A.** The value was over 100 fold.

**Q.** And the T1/2 (Cynomolgous monkey Dkk-1 [4])?
**A.** The T1/2 was over 5 h.

**Q.** What about the koff (Cynomolgous monkey Dkk-1 [4]) of the same binder?
**A.** The koff was under 6e-05 s⁻¹.

**Q.** What about the Kd [5] of the same binder?
**A.** The Kd was under 0.002 nM.

**Q.** And the T1/2 [5]?
**A.** Its T1/2 is over 96.3 h.

**Q.** What about the koff [5] of the same binder?
**A.** The koff was under 2e-06 s⁻¹.

**Q.** What about the kon [5] of the same binder?
**A.** The kon was over 1.3e+06 M⁻¹ s⁻¹.

**Q.** What about the Kd [6] of the same binder?
**A.** Its Kd is under 0.03 nM.

**Q.** And the T1/2 [6]?
**A.** Its T1/2 is over 4.94 h.

**Q.** And the koff [6]?
**A.** Its koff is under 3.9e-05 s⁻¹.

**Q.** And the kon [6]?
**A.** Its kon is over 1.3e+06 M⁻¹ s⁻¹.

**Q.** And the Kd [7]?
**A.** The Kd was under 0.1 nM.

**Q.** What about the T1/2 [7] of the same binder?
**A.** Its T1/2 is 0.92 h.

**Q.** And the koff [7]?
**A.** The koff was 0.00021 s⁻¹.

**Q.** What about the kon [7] of the same binder?
**A.** Its kon is over 1.3e+06 M⁻¹ s⁻¹.

**Q.** And the Kd [8]?
**A.** The Kd was 0.0348 nM.

**Q.** What about the Kd (Cynomolgous monkey Dkk-1 [9]) of the same binder?
**A.** Its Kd is 0.0513 nM.

**Q.** And the kon [10]?
**A.** Its kon is over 1.36e+06 M⁻¹ s⁻¹.

**Q.** What about the Kd [11] of the same binder?
**A.** Its Kd is under 0.03 nM.

**Q.** And the T1/2 [11]?
**A.** The T1/2 was over 4.94 h.

**Q.** And the koff [11]?
**A.** Its koff is under 3.9e-05 s⁻¹.

**Q.** And the kon [11]?
**A.** Its kon is over 1.3e+06 M⁻¹ s⁻¹.

**Q.** And the Kd [12]?
**A.** Its Kd is 11 nM.

**Q.** What about the T1/2 [12] of the same binder?
**A.** Its T1/2 is 1.12 h.

**Q.** What about the koff [12] of the same binder?
**A.** Its koff is 0.000172 s⁻¹.

**Q.** And the kon [12]?
**A.** The kon was 15000 M⁻¹ s⁻¹.

**Q.** And the Kd [13]?
**A.** The Kd was 9 nM.

**Q.** And the T1/2 [13]?
**A.** Its T1/2 is 1.14 h.

**Q.** What about the koff [13] of the same binder?
**A.** The koff was 0.000169 s⁻¹.

**Q.** And the kon [13]?
**A.** Its kon is 18000 M⁻¹ s⁻¹.
